Data reported in the supplement of paper PMC9170038.

Assays:
[1] = tested on: MS2 coat protein; test: apparent KD of MS2 coat protein, switch ON state; designed switch direction (-1 OFF switch, 1 ON switch): -1; higher = weaker reporter binding; conditions: FMN input: 0 or 200 uM; Eterna round: R93 (includes R88 designs)
Method in brief: (§1)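 Normalised binding curves from single clusters were fitted, and the median fit for each design is given as apparent KD. The clusters held designed RNA switches transcribed on-chip from Illumina sequencing clusters. These were titrated with SNAP-549-labelled MS2 coat protein (twofold steps from 0.7 or 1.5 nM to 3 µM, 0.8–1.5 h to 10–20 min per step) in 100 mM Tris-HCl pH 7.5, 80 mM KCl, 4 mM MgCl2, without or with constant ligand.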

[2] = tested on: MS2 coat protein; test: apparent KD of MS2 coat protein, switch OFF state (with FMN for OFF switches, without FMN for ON switches); designed switch direction (-1 OFF switch, 1 ON switch): -1; higher = weaker reporter binding; conditions: FMN input: 0 or 200 uM; Eterna round: R93 (includes R88 designs)
Method in brief: as §1

[3] = tested on: MS2 coat protein; test: apparent KD of MS2 coat protein; designed switch direction (-1 OFF switch, 1 ON switch): 1; higher = weaker reporter binding
Method in brief: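 The reported apparent KD is a per-design median over clusters, from curve fits of normalised cluster fluorescence. Protein titrations used SNAP-549-labelled MS2 coat protein, doubled from 0.7 or 1.5 nM to 3 µM, in Tris-HCl pH 7.5 buffer with KCl, MgCl2, BSA, DTT, tRNA and Tween-20, with no input, 200 uM small-molecule ligand, or an oligonucleotide input. The RNA switches were transcribed on Illumina chips by stalled E. coli RNA polymerase.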

[4] = Eterna round: R95, input ligand: FMN 200 uM
[5] = Eterna round: R95, input ligand: microRNA oligo, concentration not stated
[6] = Eterna round: R95, input ligand: none
[7] = input ligand: microRNA oligo, concentration not stated

AUAAGUGCAGGAUAUACAAAAUGCUAGCGAAAGCUAGCAUAACAUGAGGAUCACCCAUGUAGAAGGGCACAAUA [Tetraloop hairpin BlockHead... 61% 1]
apparent KD of MS2 coat protein [1]: 23.5 nM | apparent KD of MS2 coat protein [2]: 18.4 nM

AAUAAUGGAGGAUAUACUAAAGAAAUGAAAAGAAAUAAAGAACAUGAGGAUCACCCAUGUAGAAGGCCAAAUAA [Khamure]
apparent KD of MS2 coat protein [1]: 26 nM | apparent KD of MS2 coat protein [2]: 27.8 nM

UAAAGACAUGAGGAUCACCCAUGUGAGGAUAUAGGUGUAUGCAAAAAAAAGUUAAAAACUAGAAGGCACAGAAA [JR_Exc001_Sub305]
apparent KD of MS2 coat protein [1]: 66 nM | apparent KD of MS2 coat protein [2]: 42.5 nM

AACUGACAUGAGGAUCACCCAUGUCAGGAUAUGAUAUGUAAAAAAAAAAAAAUACUUAUCAGAAGGGACAUGGG [Design 40: Sub-opt AB]
apparent KD of MS2 coat protein [1]: 15.3 nM | apparent KD of MS2 coat protein [2]: 15.4 nM

AAGUUGGGAGGAUAUAUAUGGACACACAUUGGUGUAGAACUACAUGAGGAUCACCCAUGUAGAAGGCCCAAAUA [AJ 57]
apparent KD of MS2 coat protein [1]: 20.3 nM | apparent KD of MS2 coat protein [2]: 33.1 nM

AACAGGGCAGGAUAUACAUGAGGAUCACCCAUGUAGGAAACAAGCAGAGUACCAAAAAGUAGAAGGGUCAUGGA [Ruby 31]
apparent KD of MS2 coat protein [1]: 30.2 nM | apparent KD of MS2 coat protein [2]: 33.1 nM

UCCGGACAUGAGGAUCACCCAUGUGAGGAUAUAUAACGUGGGACUGGAAACAAUCCCAAUAGAAGGCACAUGAC [Reisatridi]
apparent KD of MS2 coat protein [1]: 21.5 nM | apparent KD of MS2 coat protein [2]: 20.2 nM

AUCAUGUUAGGAUAUAUAAGAAAAGAAAAGAAAGAAAAGAAAUAGAAGGAACAUGAGGAUCACCCAUGUAAGAA [EteRNA is fun!]
apparent KD of MS2 coat protein [1]: 17.5 nM | apparent KD of MS2 coat protein [2]: 23.1 nM

AACAGGUGAGGAUAUCUGGAUAGGAAAAAGAAAACCUAUCCAGAGAAGGCACAUGAGGAUCACCCAUGUAAAAA [JL cataway mod 8]
apparent KD of MS2 coat protein [1]: 78.5 nM | apparent KD of MS2 coat protein [2]: 96.2 nM

AACAUGUUAGGAUAUCAAAGAAAAGAAAAGAAAGAAAAGAAUGAGAAGGAACAUGAGGAUCACCCAUGUAAGAA [EteRNA is fun!]
apparent KD of MS2 coat protein [1]: 23 nM | apparent KD of MS2 coat protein [2]: 22.1 nM

ACAAGCUUUUUAGGAAGAGAAGAAAGGGAACAUGAGGAUCACCCAUGUAAGUGGAAUGAAGAAGGAGCACGUCUUAU [JR_SHM208A_Sub096] (puzzle: Sensor for hsa-mir-208a)
apparent KD of MS2 coat protein [3, 4]: 54.2 nM | apparent KD of MS2 coat protein [3, 5]: 17.5 nM | apparent KD of MS2 coat protein [3, 6]: 61 nM

CCGUUCAAUAAACAUGAGGAUCACCCAUGUUAUAAUAUGGGUGAGGAUAUGCAUCUGAAACAGGUGCAGAAGGCAUAAGAGCGG [JL SSNG3 3.92] (Eterna round: R96, puzzle: Same State NG 3)
apparent KD of MS2 coat protein ([3]; input ligand: FMN 200 uM): 214 nM | apparent KD of MS2 coat protein [3, 7]: 37.7 nM | apparent KD of MS2 coat protein ([3]; input ligand: none): 100 nM

UGGCUCAGACUAGGAUAUAUGCGAUCACAUGAGGAUCACCCAUGUCUCGAGCUUCGGCUCGAGGCAUAGAAGGAGUCUGAGCCU [SSNG2/4-D3] (Eterna round: R96, puzzle: Same State NG 2)
apparent KD of MS2 coat protein ([3]; input ligand: FMN 200 uM): 14.8 nM | apparent KD of MS2 coat protein [3, 7]: 35.5 nM | apparent KD of MS2 coat protein ([3]; input ligand: none): 46.7 nM

GGAGCCGGCACUGAGGAUAUUCAUAUUAAAACAUGAGGAUCACCCAUGUGGGCCAGAAGGCCUUGGGAGAAGGCAGGUCGGCCCG [Bibimoar - 4] (puzzle: Same State 2)
apparent KD of MS2 coat protein [3, 4]: 20.2 nM | apparent KD of MS2 coat protein [3, 5]: 140 nM | apparent KD of MS2 coat protein [3, 6]: 183 nM

UAAAUAAAGUAAGGAUAUACAUGAGGAUUUCUCGUAGAAGGUACAAGACAUGAGGAUCACCCAUGUAUCGCUCGAAAGAGCGUA [Mat - Same State NG 1 - JL mod - D22] (Eterna round: R96, puzzle: Same State NG 1)
apparent KD of MS2 coat protein ([3]; input ligand: FMN 200 uM): 126 nM | apparent KD of MS2 coat protein [3, 7]: 67.5 nM | apparent KD of MS2 coat protein ([3]; input ligand: none): 208 nM

AAAAAACAUGAGGAUCACCCAUGUAAAAAUAUGGGAGGAUAUUCAAACACGAAAGUGAAAGAAGAAGGCCUAAAAA [SS! MT 18] (Eterna round: R96, puzzle: Same State 1)
apparent KD of MS2 coat protein ([3]; input ligand: FMN 200 uM): 17.5 nM | apparent KD of MS2 coat protein [3, 7]: 56.7 nM | apparent KD of MS2 coat protein ([3]; input ligand: none): 81.3 nM

CACAAUCUAUCUGAGGAUAUCAUGAAAAAAACAUGAGGAUCACCCAUGUGCAGGAAAACUGCAUAUGAGAAGGCAGAUAGAUUGG [salish99_SS2_r3_014] (puzzle: Same State 2)
apparent KD of MS2 coat protein [3, 4]: 29.7 nM | apparent KD of MS2 coat protein [3, 5]: 577 nM | apparent KD of MS2 coat protein [3, 6]: 1090 nM
